Results published in publication PMC7101349 (2020).
Read-outs that look alike come from different tables or passages of the source.

Legend:
Test in all cases: SPR
His10-BRIL [1] = target: T1, His10-BRIL (UniProt P0ABE7 30-123)
His10-BRIL [2] = target: T1, His10-BRIL; remark: listed apart in the source
His10-BRIL [3] = target: T1, His10-BRIL; remark: listed apart in the source
His10-BRIL [4] = target: T1, His10-BRIL; remark: listed apart in the source

| Binder | Kd (His10-BRIL [1]) [nM] | koff (His10-BRIL [2]) [s⁻¹] | further results |
| --- | --- | --- | --- |
| sAB BAK5 (Fab, V domains shown) VH: EVQLVESGGGLVQPGGSLRLSCAASGFNVRSFSIHWVRQAPGKGLEWVAYISSSSGSTSYADSVKGRFTISADTSKNTAYLQMNSLRAEDTAVYYCARWGYWPGEPWWKAFDYWGQGTLVTVSS VL: DIQMTQSPSSLSASVGDRVTITCRASQSVSSAVAWYQQKPGKAPKLLIYSASSLYSGVPSRFSGSRSGTDFTLTISSLQPEDFATYYCQQYLYYSLVTFGQGTKVEIK | 0.175 | – | – |
| BAG2 F35A (Fab, V domains shown) VH: EVQLVESGGGLVQPGGSLRLSCAASGFNVVDASLHWVRQAPGKGLEWVAYISSSSGSTSYADSVKGRFTISADTSKNTAYLQMNSLRAEDTAVYYCARWGYWPGEPWWKAFDYWGQGTLVTVSS VL: DIQMTQSPSSLSASVGDRVTITCRASQSVSSAVAWYQQKPGKAPKLLIYSASSLYSGVPSRFSGSRSGTDFTLTISSLQPEDFATYYCQQYLYYSLVTFGQGTKVEIK | – | 0.00028 | – |
| sAB BAG2 (Fab, V domains shown) VH: EVQLVESGGGLVQPGGSLRLSCAASGFNVVDFSLHWVRQAPGKGLEWVAYISSSSGSTSYADSVKGRFTISADTSKNTAYLQMNSLRAEDTAVYYCARWGYWPGEPWWKAFDYWGQGTLVTVSS VL: DIQMTQSPSSLSASVGDRVTITCRASQSVSSAVAWYQQKPGKAPKLLIYSASSLYSGVPSRFSGSRSGTDFTLTISSLQPEDFATYYCQQYLYYSLVTFGQGTKVEIK | 0.269 | – | koff (His10-BRIL [3]): 0.00013 s⁻¹ |
| BAG2 S36A (Fab, V domains shown) VH: EVQLVESGGGLVQPGGSLRLSCAASGFNVVDFALHWVRQAPGKGLEWVAYISSSSGSTSYADSVKGRFTISADTSKNTAYLQMNSLRAEDTAVYYCARWGYWPGEPWWKAFDYWGQGTLVTVSS VL: DIQMTQSPSSLSASVGDRVTITCRASQSVSSAVAWYQQKPGKAPKLLIYSASSLYSGVPSRFSGSRSGTDFTLTISSLQPEDFATYYCQQYLYYSLVTFGQGTKVEIK | – | 0.00037 | – |
| sAB24 (Fab, V domains shown) VH: EVQLVESGGGLVQPGGSLRLSCAASGFNFSSSSIHWVRQAPGKGLEWVAYISSSSGSTSYADSVKGRFTISADTSKNTAYLQMNSLRAEDTAVYYCARWGYWPGEPWWKAFDYWGQGTLVTVSS VL: DIQMTQSPSSLSASVGDRVTITCRASQSVSSAVAWYQQKPGKAPKLLIYSASSLYSGVPSRFSGSRSGTDFTLTISSLQPEDFATYYCQQYLYYSLVTFGQGTKVEIK | – | – | koff (His10-BRIL [4]): 0.0008 s⁻¹ |
